This experiment addresses Human FANCD2, non-tagged (human, UniProt Q9BXW9-2 1-1451). The experiment can be described thus: co-IP.

Chain of Human FANCD2, non-tagged (Q9BXW9 whole entry): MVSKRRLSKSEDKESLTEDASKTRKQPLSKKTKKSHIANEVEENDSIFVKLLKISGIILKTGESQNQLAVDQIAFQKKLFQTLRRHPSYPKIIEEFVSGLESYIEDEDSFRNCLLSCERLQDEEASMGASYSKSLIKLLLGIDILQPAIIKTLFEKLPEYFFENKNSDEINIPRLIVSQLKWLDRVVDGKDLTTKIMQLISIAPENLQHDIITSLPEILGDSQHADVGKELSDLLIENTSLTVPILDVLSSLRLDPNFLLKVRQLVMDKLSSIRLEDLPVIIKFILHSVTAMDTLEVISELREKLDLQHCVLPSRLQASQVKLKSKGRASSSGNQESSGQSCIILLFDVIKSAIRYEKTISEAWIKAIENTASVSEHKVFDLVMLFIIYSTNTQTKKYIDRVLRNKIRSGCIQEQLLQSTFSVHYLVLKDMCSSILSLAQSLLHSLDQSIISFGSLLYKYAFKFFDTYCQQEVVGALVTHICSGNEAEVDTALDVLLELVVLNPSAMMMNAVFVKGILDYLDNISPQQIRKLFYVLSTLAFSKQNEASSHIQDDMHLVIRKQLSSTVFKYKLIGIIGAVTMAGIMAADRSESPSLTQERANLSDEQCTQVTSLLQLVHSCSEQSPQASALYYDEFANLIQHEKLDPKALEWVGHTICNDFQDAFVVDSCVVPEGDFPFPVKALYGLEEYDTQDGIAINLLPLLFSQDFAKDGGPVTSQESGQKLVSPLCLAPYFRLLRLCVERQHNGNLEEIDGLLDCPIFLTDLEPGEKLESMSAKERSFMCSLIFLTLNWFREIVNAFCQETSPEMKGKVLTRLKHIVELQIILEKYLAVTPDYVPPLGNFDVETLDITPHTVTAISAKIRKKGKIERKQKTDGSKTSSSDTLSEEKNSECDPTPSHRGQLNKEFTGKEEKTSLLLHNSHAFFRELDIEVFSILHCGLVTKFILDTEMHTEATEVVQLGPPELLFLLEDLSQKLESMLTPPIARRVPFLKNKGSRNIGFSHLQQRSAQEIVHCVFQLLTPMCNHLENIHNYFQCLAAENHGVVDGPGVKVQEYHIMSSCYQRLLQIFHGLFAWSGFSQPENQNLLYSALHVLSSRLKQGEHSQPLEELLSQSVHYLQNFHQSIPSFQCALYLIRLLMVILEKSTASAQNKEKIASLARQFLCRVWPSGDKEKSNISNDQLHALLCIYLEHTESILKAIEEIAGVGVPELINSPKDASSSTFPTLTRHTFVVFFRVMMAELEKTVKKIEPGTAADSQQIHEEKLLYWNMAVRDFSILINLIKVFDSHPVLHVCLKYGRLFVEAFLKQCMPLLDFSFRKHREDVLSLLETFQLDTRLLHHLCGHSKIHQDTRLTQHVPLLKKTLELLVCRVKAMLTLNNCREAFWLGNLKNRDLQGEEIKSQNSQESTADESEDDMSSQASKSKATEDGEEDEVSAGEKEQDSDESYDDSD

B1: FANCI-D1301A, hexahistidine-tagged (EDGE motif mutant) (natural protein, human, UniProt Q9NVI1-3 1-1328, looked up)
chain: MDQKILSLAAEKTADKLQEFLQTLREGDLTNLLQNQAVKGKVAGALLRAIFKGSPCSEEAGTLRRRKIYTCCIQLVESGDLQKEIASEIIGLLMLEAHHFPGPLLVELANEFISAVREGSLVNGKSLELLPIILTALATKKENLAYGKGVLSGEECKKQLINTLCSGRWDQQYVIQLTSMFKDVPLTAEEVEFVVEKALSMFSKMNLQEIPPLVYQLLVLSSKGSRKSVLEGIIAFFSALDKQHNEEQSGDELLDVVTVPSGELRHVEGTIILHIVFAIKLDYELGRELVKHLKVGQQGDSNNNLSPFSIALLLSVTRIQRFQDQVLDLLKTSVVKSFKDLQLLQGSKFLQNLVPHRSYVSTMILEVVKNSVHSWDHVTQGLVELGFILMDSYGPKKVLDGKTIETSPSLSRMPNQHACKLGANILLETFKIHEMIRQEILEQVLNRVVTRASSPISHFLDLLSNIVMYAPLVLQSCSSKVTEAFDYLSFLPLQTVQRLLKAVQPLLKVSMSMRDCLILVLRKAMFANQLDARKSAVAGFLLLLKNFKVLGSLSSSQCSQSLSVSQVHVDVHSHYNSVANETFCLEIMDSLRRCLSQQADVRLMLYEGFYDVLRRNSQLANSVMQTLLSQLKQFYEPKPDLLPPLKLEACILTQGDKISLQEPLDYLLCCIQHCLAWYKNTVIPLQQGEEEEEEEEAFYEDLDDILESITNRMIKSELEDFELDKSADFSQSTSIGIKNNICAFLVMGVCEVLIEYNFSISSFSKNRFEDILSLFMCYKKLSDILNEKAGKAKTKMANKTSDSLLSMKFVSSLLTALFRDSIQSHQESLSVLRSSNEFMRYAVNVALQKVQQLKETGHVSGPDGQNPEKIFQNLCDITRVLLWRYTSIPTSVEESGKKEKGKSISLLCLEGLQKIFSAVQQFYQPKIQQFLRALDVTDKEGEEREDADVSVTQRTAFQIRQFQRSLLNLLSSQEEDFNSKEALLLVTVLTSLSKLLEPSSPQFVQMLSWTSKICKENSREDALFCKSLMNLLFSLHVSYKSPVILLRDLSQDIHGHLGDIDQDVEVEKTNHFAIVNLRTAAPTVCLLVLSQAEKVLEEVDWLITKLKGQVSQETLSEEASSQATLPNQPVEKAIIMQLGTLLTFFHELVQTALPSGSCVDTLLKDLCKMYTTLTALVRYYLQVCQSSGGIPKNMEKLVKLSGSHLTPLCYSFISYVQNKSKSLNYTGEKKEKPAAVATAMARVLRETKPIPNLIFAIEQYEKFLIHLSKKSKVNLMQHMKLSTSRDFKIKGNILDMVLREAGEDENEEGTASEHGGQNKEPAKKKRKK
As for B1, the binding result is recorded as “binds”.

B2: FANCI-(1001–1328), hexahistidine-tagged (domain or fragment, human, UniProt Q9NVI1-3 1001-1328, looked up)
chain: PQFVQMLSWTSKICKENSREDALFCKSLMNLLFSLHVSYKSPVILLRDLSQDIHGHLGDIDQDVEVEKTNHFAIVNLRTAAPTVCLLVLSQAEKVLEEVDWLITKLKGQVSQETLSEEASSQATLPNQPVEKAIIMQLGTLLTFFHELVQTALPSGSCVDTLLKDLCKMYTTLTALVRYYLQVCQSSGGIPKNMEKLVKLSGSHLTPLCYSFISYVQNKSKSLNYTGEKKEKPAAVATAMARVLRETKPIPNLIFAIEQYEKFLIHLSKKSKVNLMQHMKLSTSRDFKIKGNILDMVLREDGEDENEEGTASEHGGQNKEPAKKKRKK
B2: the binding result is “binds”.
